{"source": "paper PMC12585912", "about": "“Solution structure of the Sox2 DNA-binding domain reveals conformational selection in DNA binding”", "binders": {"B1": {"name": "FGF4 DNA 13-mer (dsDNA)", "DNA 1": "ACTCTTTGTTCGA", "DNA 2": "TCGAACAAAGAGT"}}, "target": "Sox2(24-118) DBD (UniProt P48431 24-118)", "sequence (P48431 24-118)": "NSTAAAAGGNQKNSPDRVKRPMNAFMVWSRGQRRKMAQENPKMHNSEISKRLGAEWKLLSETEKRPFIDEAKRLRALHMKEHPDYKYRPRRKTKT", "test": "NMR titration; 0.5 M ionic strength; specific binding in slow exchange, nonspecific mode reduced; 20 mM Tris, 135 mM KCl, 15 mM NaCl, pH 7.3 (NMR: 10% D2O, 0.01% NaN3, 293 K; nanoDSF: 25 uM protein, 1 mM DTT in protein/DNA buffer, 288-368 K at 1 K/min)", "conditions": "protein: recombinant; tags: N-terminal T7-tag; blunt"}
{"binder": "B1", "values": [{"measurement": "binding result", "value": "binds"}]}
